How the values were obtained:
[1] = system: Sleeping Beauty transposase N123 HSB1 (mutations not given) (salmonid (reconstructed)); assay: EMSA; details: no change vs WT
[2] = system: Sleeping Beauty transposase HSB-5 K13A,K33A,T83A,S270A (salmonid (reconstructed)); assay: cell_activity; details: transposition in HeLa, G418R colonies
[3] = system: Sleeping Beauty transposase K33A K33A (salmonid (reconstructed)); assay: cell_activity; details: transposition in HeLa; text says improved 400%
[4] = system: Sleeping Beauty transposase S270A S270A (salmonid (reconstructed)); assay: cell_activity; details: transposition in HeLa
[5] = biological target: T1, Sleeping Beauty transposase N123 (WT) (salmonid (reconstructed)); assay: EMSA; poly(dI)(dC), 22 C; 500-fold cold oligo used as specific competitor; details: tags: pGADT7 TNT T7 reticulocyte lysate; label: 32P
T1 chain: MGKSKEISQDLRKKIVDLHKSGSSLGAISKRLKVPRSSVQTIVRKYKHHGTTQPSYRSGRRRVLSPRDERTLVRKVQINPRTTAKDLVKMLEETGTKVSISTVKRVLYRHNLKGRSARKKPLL
Procedure: (§1) Truncated (N123) derivatives of wild-type and mutant SB proteins were generated using the TNT T7 coupled reticulocyte lysate system (Promega) according to the manufacturer's instructions. Double-stranded oligonucleotides corresponding to the outer and inner direct repeats (DRs) from SB's left inverted repeat (IR) were end-labeled using [γ-^32P]ATP and PNK. Complexes were formed in a 10 μl volume containing 10 fmol labeled oligonucleotide, 6 μl of in vitro translation product, 1 μg poly(dI)(dC), and binding buffer as previously described (Ivics et al., 1997). For competitions, increasing amounts (1-500 nM) of the corresponding unlabeled oligonucleotide was added to the reaction. After a 90 minute incubation at 22° C., 5 μl of loading dye was added and each sample was resolved on a 5% polyacrylamide gel for 2-3 hours at 120 volts. Binding affinities were determined by measuring the ratio of bound vs. free radiolabeled probe using a Phosphorimager, and normalized according to the amount bound in the absence of cold competitor minus the amount bound at the highest competitor concentration.

[6] = biological target: T2, Sleeping Beauty transposase N123 L25A (salmonid (reconstructed), L25A); assay: EMSA; details: tags: pGADT7 TNT T7 reticulocyte lysate; label: 32P
T2 chain: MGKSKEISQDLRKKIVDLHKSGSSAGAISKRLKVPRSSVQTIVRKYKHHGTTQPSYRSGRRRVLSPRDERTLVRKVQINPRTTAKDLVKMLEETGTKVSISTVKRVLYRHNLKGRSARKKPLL
Procedure: as §1

[7] = biological target: T3, Sleeping Beauty transposase N123 R36A (salmonid (reconstructed), R36A); assay: EMSA; details: tags: pGADT7 TNT T7 reticulocyte lysate; label: 32P
T3 chain: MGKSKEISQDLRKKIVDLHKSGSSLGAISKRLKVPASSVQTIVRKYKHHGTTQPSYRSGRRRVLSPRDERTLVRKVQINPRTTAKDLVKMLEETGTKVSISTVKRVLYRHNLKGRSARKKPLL
Procedure: as §1

[8] = biological target: T4, Sleeping Beauty transposase N123 I42A (salmonid (reconstructed), I42A); assay: EMSA; details: tags: pGADT7 TNT T7 reticulocyte lysate; label: 32P
T4 chain: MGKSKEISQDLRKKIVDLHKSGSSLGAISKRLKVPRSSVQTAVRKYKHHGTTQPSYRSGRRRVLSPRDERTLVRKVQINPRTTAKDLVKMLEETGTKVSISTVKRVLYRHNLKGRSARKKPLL
Procedure: as §1

[9] = biological target: T5, Sleeping Beauty transposase N123 HSB3 (salmonid (reconstructed), K13A,K33A,T83A); assay: EMSA; no change vs WT; details: tags: pGADT7 TNT T7 reticulocyte lysate; label: 32P
T5 chain: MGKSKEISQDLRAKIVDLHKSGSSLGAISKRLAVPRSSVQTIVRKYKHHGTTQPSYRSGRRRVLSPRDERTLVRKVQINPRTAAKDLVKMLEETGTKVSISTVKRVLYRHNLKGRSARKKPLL
Procedure: as §1
(§2) Figure 8: FIG. 8. is a comparison of the relative binding affinities of the WT and HSB mutants for transposon binding sites. SB-N123 peptides for WT and hyperactive transposases were complexed with double-stranded radiolabeled oligos encoding the inner (top panel) or outer (bottom panel) DR sequences. Protein-DNA complexes were formed in the presence of increasing amounts of the corresponding unlabeled oligonucleotide. The percent binding was determined using a Phosphorimager and normalized according to the amount of probe bound in the absence of any competitor minus the amount of probe bound at 500 nM.

[10] = biological target: T6, Sleeping Beauty transposase N123 HSB2 (salmonid (reconstructed), K33A,L91A); assay: EMSA; no change vs WT; details: tags: pGADT7 TNT T7 reticulocyte lysate; label: 32P
T6 chain: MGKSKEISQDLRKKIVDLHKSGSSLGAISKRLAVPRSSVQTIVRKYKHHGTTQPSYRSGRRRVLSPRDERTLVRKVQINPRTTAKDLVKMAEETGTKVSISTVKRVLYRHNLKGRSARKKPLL
Procedure: as §1, §2

[11] = biological target: T7, Sleeping Beauty transposase N123 HSB4 (salmonid (reconstructed), K33A,T83A,L91A); assay: EMSA; no change vs WT; details: tags: pGADT7 TNT T7 reticulocyte lysate; label: 32P
T7 chain: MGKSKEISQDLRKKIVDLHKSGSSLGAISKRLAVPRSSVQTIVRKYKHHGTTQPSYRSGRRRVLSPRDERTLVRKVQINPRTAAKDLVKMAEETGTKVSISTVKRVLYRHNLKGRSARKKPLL
Procedure: as §1, §2

[12] = biological target: T5, Sleeping Beauty transposase N123 HSB3; assay: EMSA; cold competition, 1-500 nM; details: tags: pGADT7 TNT T7 reticulocyte lysate; label: 32P
Procedure: as §1, §2

[13] = biological target: T6, Sleeping Beauty transposase N123 HSB2; assay: EMSA; cold competition, 1-500 nM; details: tags: pGADT7 TNT T7 reticulocyte lysate; label: 32P
Procedure: as §1, §2

[14] = biological target: T7, Sleeping Beauty transposase N123 HSB4; assay: EMSA; cold competition, 1-500 nM; details: tags: pGADT7 TNT T7 reticulocyte lysate; label: 32P
Procedure: as §1, §2

In the case of “TCCAGTGGGTCAGAAGTTTACATACACTAAGT (double strand) [inner DR of SB left IR]”, the binding signal (fold affinity vs WT) [1] is reported as 1.

In the case of “pT/nori neomycin-marked SB transposon (full sequence not given)”, the activity [2] is reported as > 10 fold vs WT, the activity [3] is reported as 400 % of WT and the activity [4] is reported as 186 % of WT.

B1: inner DR of SB left IR (dsDNA)
DNA 1: TCCAGTGGGTCAGAAGTTTACATACACTAAGT
DNA 2: ACTTAGTGTATGTAAACTTCTGACCCACTGGA
B1: binds [5]; binds [6]; binds [7]. For the same molecule, the binding result [8] was “binds”, the binding signal [9] was 1 fold affinity vs WT and the binding signal [10] was 1 fold affinity vs WT. For the same molecule, the binding signal [11] was 1 fold affinity vs WT.

B2: outer DR of SB left IR (dsDNA)
DNA 1: TACAGTTGAAGTCGGAAGTTTACATACACTTAGG
DNA 2: CCTAAGTGTATGTAAACTTCCGACTTCAACTGTA
With B2 the binding result [5] was “binds”, the binding signal [12] was 2 fold affinity vs WT and the binding result [13] was “binds”. B2: binds [14].

— patent US7985739, “Enhanced sleeping beauty transposon system and methods for using the same” (The Board of Trustees of the Leland Stanford Junior …)
